The values that follow come from publication doi:10.1101/2021.02.18.431788.

Usually stoichiometry N stands for a count of units in the complex or per binding partner.

This assay concerns the target Neurofibromin (NF1), full length, isoform 1 (human) (UniProt P21359). Description: AUC.

The substance “Neurofibromin (NF1), full length, isoform 1, P21359-2 1-2818” had a stoichiometry N of 2.
